Biological target: T1, Pa-aIF2γ (γ-subunit of archaeal translation initiation factor 2 from Pyrococcus abyssi), native version (Pyrococcus abyssi, UniProt Q9V1G0 1-411)
T1 construct: aIF2 γ-subunit from Pyrococcus abyssi, native (untagged) version; Stood in the assay as part of the aIF2 heterotrimer with GDPNP and Met-tRNA; The deposited models use the S. solfataricus ternary complex (PDB 3V11) as the fitted component; source: cells overproducing the subunit, mixed with cells overproducing α and β; heterotrimer purified (heating at 80 °C, Q-Hiload, S-Hiload, Superdex 200)
T1 sequence (looked up): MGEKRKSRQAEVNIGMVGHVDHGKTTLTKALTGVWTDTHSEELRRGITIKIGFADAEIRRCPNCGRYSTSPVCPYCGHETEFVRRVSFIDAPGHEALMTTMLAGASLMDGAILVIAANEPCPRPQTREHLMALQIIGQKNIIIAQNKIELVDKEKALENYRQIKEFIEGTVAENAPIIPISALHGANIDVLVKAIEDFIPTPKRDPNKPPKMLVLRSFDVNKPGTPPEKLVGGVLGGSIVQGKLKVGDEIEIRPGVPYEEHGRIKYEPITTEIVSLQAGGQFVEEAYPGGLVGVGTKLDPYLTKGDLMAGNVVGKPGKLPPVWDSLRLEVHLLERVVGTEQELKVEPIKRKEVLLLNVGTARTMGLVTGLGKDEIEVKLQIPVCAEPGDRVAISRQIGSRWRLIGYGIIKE
Assay: cryo-EM structure; full 30S initiation complex (Pa-30S, synthetic mRNA, Met-tRNAfMet A1-U72, GDPNP, Pa-aIF1, Pa-aIF1A, Pa-aIF2) assembled at 51 °C in IC buffer (10 mM Hepes pH 7.5, 100 mM NH4Cl, 10 mM magnesium acetate, 3 mM 2-mercaptoethanol), purified on Talon; class IC0-P_(REMOTE), tRNA out of the P site, 5.34 Å overall resolution; known structures of homologous components fitted
Details: both partners purified

B1: Pa-aIF2α (α-subunit of archaeal translation initiation factor 2 from Pyrococcus abyssi), N-terminally tagged version (natural protein, UniProt Q9V0E4 1-275, looked up)
chain: MPRRAREYPEEGEFVVATVKRIHNYGAFLELDEYPGKEAFMHISEVASTWVRNIRDYLKEGQKVVAKVIRVDPRKGHIDLSLRRVTQQQRKAKLQEFKRAQKAENLLKLAAEKLGKDFETAWREVWVPLEEEWGEVYAAFEDAAKDGIDVLKGHVPDEWLPVLKEIIDNYVEVPTVTIDAEFEITVPKPNGVEIIKEALIRARDRANKEKDVEVKFTYLGAPRYRIDITAPDYYKAEEVLESIAEEILRVIKEAGGEATLLRKEKRIKKVKKRKK
notes: aIF2 α-subunit from Pyrococcus abyssi, N-terminally tagged version; domains 1 and 2 (aIF2α-D12) and domain 3 (aIF2α-D3); the complex was purified on a Talon column by it; Stood in the assay as part of the aIF2 heterotrimer; source: cells overproducing the subunit, mixed with cells overproducing β and γ; heterotrimer purified (heating at 80 °C, Q-Hiload, S-Hiload, Superdex 200)
**Q.** Does B1 bind?
**A.** Result: binds
